“And” between values parts separate entries of the source, which are not always exact repeats. Identical values can stand only once.

This test has as its target human P2X7R ballast domain (P2X7BD, residues 395–595) (human) (UniProt Q99572). The test can be described thus: cross-linking.

Chain of human P2X7R ballast domain (P2X7BD, residues 395–595) (human) (Q99572 395-595): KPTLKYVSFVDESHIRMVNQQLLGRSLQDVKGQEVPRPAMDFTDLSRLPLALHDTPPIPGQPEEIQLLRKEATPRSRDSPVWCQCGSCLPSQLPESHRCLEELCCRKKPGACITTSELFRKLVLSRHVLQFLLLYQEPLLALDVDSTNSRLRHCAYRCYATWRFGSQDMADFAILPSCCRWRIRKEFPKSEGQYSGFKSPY

Consider “human calmodulin (Ca^2+-CaM; apo-CaM in EDTA) (from UniProt P0DP23 1-149) (natural protein)”, for which the stoichiometry N (Ca^2+-CaM per P2X7BD) was 1 and 2.

The values are drawn from PMC9574498.
